Data reported in patent US20180186890A1 (UNITED STATES OF AMERICA AS REPRESENTED BY THE SECRETARY …, published 2018).

Molecular target: T1, mouse CD276 expressed on the cell surface (mouse, UniProt Q8VE98 29-316)
T1 construct: whole, on cells; also called CHO-msCD276; host CD276 on tumor vasculature of CD276 WT mice
T1 sequence (looked up): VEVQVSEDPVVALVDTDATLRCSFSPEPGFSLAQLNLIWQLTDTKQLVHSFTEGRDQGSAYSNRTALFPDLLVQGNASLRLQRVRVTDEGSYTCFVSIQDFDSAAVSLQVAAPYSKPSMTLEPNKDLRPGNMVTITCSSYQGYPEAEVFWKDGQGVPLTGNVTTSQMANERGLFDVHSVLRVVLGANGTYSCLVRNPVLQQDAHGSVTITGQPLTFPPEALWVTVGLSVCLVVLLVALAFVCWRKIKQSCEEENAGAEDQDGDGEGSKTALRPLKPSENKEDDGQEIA
Assay: immunofluorescence of tumor vasculature after IP injection; no green staining in CD276 KO mice

B1: FITC-labeled human anti-CD276 antibody m8524 IgG1 (antibody, V domains shown)
VH: QVQLQQSGAEVKKPGSSVKVSCKASGGTFSSYAISWVRQAPGQGLEWMGGIIPILGIANYAQKFQGRVTITADESTSTAYMELSSLRSEDTAVYYCARGGSGSYHMDVWGKGTTVTVSS
VL: EIVLTQSPATLSLSPGERATLSCRASQSVSSYLAWYQQKPGQAPRLLIYDASNRATGIPARFSGSGSGTDFTLTISSLEPEDFAVYYCQQRSNWPPRITFGQGTRLEIK
modifications: FITC-labeled antibody (site not stated)
notes: IgG1; also called anti-CD276 mAb
binding result: binds
